The results in this text go back to the supplement of paper PMC5998384.

In series [1] the test system is HeLa Kyoto. The series is described as follows: solubility in G1/S (NP-40 vs SDS abundance) (log2 ratio); higher = more soluble. To be noted: cell cycle stage: G1/S.
Series [2] concerns HeLa Kyoto. The series is described as follows: solubility change mitosis vs G1/S (difference of NP-40 vs SDS log2 ratios) (log2 ratio difference); higher = more soluble in mitosis.
The test system of series [3] is HeLa Kyoto. The experiment in a line: thermal stability score vs G1/S (z-score of summed log2 fold changes over temperatures); higher = more thermally stable than in G1/S.
Series [4] concerns HeLa Kyoto. The experiment in a line: melting temperature (median over replicates), in situ; higher = more thermally stable.
Where [5] appears, read: cell cycle stage: early G1 (4.5 h after nocodazole release).
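Wherever melting temperature (median over replicates), in situ is given: HeLa Kyoto cells synchronized by double thymidine or nocodazole block, proteins quantified by TMT10plex mass spectrometry, three independent biological replicates.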
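Wherever solubility change mitosis vs G1/S (difference of NP-40 vs SDS log2 ratios) is given: synchronized HeLa Kyoto cells (double thymidine block for G1/S, nocodazole release for mitosis), protein amounts in NP-40 versus SDS lysates quantified by mass spectrometry, three biological replicates.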
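Wherever solubility in G1/S (NP-40 vs SDS abundance) is given: HeLa Kyoto cells arrested at G1/S by double thymidine block, proteins quantified by TMT10plex mass spectrometry in mild NP-40 versus SDS extracts, three biological replicates.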
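Wherever thermal stability score vs G1/S (z-score of summed log2 fold changes over temperatures) is given: synchronized HeLa Kyoto cells, proteins quantified by TMT10plex mass spectrometry, three biological replicates, mitosis taken 0.5 h after nocodazole release, G1/S directly after double thymidine block.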

AGO2, sequence (chain, as listed by the source): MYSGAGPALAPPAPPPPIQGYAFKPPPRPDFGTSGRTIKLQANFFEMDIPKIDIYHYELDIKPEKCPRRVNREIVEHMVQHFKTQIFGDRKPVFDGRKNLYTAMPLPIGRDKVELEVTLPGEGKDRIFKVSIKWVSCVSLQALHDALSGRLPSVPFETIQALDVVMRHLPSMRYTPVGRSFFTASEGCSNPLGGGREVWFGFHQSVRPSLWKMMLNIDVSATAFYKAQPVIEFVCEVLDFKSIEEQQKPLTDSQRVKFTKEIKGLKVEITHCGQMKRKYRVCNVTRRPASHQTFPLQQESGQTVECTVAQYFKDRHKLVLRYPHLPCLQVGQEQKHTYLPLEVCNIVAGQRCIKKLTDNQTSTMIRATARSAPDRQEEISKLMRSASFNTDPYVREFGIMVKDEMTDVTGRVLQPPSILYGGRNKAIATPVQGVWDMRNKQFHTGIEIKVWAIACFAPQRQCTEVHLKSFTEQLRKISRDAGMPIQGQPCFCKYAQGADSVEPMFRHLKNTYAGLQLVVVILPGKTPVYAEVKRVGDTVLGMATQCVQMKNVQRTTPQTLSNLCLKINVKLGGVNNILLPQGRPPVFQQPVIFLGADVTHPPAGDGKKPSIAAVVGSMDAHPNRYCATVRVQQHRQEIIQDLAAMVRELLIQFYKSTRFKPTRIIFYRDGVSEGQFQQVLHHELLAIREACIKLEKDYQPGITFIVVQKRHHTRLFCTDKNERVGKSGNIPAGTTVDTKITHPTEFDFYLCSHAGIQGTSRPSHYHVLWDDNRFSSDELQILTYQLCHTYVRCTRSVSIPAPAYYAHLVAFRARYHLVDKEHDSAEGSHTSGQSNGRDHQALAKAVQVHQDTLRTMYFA
ATR, sequence (chain, as listed by the source): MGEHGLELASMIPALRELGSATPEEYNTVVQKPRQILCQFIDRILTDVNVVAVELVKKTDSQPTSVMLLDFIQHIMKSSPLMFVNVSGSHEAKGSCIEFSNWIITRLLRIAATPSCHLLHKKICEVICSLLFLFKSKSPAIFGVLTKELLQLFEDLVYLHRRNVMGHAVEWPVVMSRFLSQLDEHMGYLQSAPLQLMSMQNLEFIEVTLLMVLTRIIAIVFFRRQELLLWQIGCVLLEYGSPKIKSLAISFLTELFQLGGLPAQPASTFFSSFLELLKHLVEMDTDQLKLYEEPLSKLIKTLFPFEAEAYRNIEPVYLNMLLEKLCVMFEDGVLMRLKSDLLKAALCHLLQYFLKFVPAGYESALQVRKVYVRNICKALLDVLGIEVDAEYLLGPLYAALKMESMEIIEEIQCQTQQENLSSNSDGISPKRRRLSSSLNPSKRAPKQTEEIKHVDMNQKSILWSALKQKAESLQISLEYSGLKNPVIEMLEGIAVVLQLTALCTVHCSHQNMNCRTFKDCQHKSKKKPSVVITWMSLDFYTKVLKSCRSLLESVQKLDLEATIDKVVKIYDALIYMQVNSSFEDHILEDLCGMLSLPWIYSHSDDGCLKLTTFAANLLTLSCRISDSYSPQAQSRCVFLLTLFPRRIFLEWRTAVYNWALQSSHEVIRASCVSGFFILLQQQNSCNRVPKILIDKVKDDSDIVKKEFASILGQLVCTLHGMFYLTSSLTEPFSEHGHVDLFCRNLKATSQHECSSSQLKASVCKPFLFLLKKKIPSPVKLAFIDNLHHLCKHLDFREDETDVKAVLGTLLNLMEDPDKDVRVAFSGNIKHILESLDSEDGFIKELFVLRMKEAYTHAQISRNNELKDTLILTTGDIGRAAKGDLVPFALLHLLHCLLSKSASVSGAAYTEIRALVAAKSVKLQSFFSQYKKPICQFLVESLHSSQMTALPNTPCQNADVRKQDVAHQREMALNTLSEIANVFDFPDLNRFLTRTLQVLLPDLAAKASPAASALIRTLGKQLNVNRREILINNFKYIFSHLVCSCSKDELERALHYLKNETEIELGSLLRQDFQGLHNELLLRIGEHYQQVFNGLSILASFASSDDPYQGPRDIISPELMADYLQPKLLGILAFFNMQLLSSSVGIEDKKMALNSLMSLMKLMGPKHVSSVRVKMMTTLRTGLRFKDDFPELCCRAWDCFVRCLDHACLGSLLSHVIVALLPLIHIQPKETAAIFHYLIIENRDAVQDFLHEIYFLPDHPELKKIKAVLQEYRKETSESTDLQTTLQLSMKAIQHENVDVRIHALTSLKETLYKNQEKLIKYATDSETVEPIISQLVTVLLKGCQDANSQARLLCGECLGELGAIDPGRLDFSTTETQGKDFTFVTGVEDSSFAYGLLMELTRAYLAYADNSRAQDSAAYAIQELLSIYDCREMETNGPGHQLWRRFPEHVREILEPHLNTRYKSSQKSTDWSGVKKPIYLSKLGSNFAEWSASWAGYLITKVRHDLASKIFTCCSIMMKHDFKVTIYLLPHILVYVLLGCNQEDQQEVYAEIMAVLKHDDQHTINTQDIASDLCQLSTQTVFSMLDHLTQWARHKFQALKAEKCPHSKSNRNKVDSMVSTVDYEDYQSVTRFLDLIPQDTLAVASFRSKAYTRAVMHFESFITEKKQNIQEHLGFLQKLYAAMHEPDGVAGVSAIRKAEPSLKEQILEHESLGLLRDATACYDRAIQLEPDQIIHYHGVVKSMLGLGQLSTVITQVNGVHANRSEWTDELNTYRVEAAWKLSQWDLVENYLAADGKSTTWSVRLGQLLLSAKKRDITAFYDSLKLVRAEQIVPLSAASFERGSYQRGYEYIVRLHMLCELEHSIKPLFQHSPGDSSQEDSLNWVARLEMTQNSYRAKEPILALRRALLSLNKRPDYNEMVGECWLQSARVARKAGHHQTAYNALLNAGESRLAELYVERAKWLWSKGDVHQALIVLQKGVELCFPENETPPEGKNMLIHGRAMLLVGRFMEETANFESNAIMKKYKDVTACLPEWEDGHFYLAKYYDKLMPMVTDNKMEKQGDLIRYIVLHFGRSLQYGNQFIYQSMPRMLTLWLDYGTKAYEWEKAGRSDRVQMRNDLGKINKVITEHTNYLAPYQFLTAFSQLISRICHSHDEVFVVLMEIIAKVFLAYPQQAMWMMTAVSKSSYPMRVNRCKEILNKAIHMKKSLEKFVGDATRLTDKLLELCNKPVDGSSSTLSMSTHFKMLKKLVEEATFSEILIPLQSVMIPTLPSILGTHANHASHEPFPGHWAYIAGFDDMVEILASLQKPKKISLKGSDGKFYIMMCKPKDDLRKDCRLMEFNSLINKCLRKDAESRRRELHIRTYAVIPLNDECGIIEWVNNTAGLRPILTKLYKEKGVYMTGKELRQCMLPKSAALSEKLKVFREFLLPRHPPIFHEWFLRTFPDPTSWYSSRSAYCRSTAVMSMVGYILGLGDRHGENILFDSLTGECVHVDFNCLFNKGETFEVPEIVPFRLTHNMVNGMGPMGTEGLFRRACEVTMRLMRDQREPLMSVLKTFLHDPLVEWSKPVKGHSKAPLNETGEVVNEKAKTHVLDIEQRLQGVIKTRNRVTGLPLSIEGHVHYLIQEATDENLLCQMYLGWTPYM
DHX9, sequence (chain, as listed by the source): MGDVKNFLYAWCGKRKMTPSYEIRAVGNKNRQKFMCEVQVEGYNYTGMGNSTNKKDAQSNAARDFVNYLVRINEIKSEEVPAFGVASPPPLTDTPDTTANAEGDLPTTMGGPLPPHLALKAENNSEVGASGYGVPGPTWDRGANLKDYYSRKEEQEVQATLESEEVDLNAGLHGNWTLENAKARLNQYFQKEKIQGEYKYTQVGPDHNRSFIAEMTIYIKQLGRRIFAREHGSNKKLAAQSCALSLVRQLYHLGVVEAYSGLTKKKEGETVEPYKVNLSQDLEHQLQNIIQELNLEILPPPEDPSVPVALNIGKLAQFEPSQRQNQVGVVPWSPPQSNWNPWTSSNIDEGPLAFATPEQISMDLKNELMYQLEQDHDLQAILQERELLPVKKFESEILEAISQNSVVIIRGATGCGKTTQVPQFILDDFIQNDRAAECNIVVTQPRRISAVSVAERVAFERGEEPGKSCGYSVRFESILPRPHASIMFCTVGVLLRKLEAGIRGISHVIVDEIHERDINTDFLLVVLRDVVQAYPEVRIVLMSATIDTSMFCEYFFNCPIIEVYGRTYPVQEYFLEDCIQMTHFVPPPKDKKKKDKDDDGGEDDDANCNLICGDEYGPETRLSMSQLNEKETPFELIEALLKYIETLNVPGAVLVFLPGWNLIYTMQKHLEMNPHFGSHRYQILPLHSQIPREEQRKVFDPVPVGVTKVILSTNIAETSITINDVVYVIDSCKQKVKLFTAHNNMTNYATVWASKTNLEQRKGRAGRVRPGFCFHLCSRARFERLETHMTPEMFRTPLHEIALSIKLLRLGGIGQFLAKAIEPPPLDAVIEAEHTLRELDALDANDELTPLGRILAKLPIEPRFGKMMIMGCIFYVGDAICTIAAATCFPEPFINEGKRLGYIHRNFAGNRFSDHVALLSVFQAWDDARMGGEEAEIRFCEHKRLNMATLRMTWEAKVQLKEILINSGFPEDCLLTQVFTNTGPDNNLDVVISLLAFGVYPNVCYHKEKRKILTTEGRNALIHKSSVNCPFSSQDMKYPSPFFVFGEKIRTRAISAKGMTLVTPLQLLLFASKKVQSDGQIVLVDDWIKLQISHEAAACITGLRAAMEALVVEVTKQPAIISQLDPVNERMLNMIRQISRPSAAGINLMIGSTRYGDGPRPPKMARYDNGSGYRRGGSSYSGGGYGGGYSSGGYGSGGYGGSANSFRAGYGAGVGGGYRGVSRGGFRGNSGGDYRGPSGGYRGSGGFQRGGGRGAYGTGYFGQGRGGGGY
CIAPIN1, sequence (chain, as listed by the source): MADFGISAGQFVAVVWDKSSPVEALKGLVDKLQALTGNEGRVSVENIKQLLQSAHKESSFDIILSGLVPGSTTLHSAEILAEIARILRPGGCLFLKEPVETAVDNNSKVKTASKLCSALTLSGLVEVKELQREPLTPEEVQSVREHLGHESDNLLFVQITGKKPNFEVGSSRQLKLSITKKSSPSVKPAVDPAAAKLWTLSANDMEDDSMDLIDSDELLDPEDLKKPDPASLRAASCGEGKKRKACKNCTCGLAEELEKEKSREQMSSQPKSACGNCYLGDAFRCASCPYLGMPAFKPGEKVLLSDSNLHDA

As to ABCC1, the “solubility in G1/S (log2)” value with HeLa Kyoto [1] came to 0.0337. Besides, in the series with HeLa Kyoto [2], the “solubility change mitosis (log2)” value is -0.0751. The thermal stability score was -0.781 in the series on HeLa Kyoto [3] (setting [5]) and -0.316 with HeLa Kyoto [3] (cell cycle stage: mitosis). Besides, the melting temperature with HeLa Kyoto [4] (cell cycle stage: G1/S) is 54.5 °C; in the series with HeLa Kyoto [4] (cell cycle stage: mitosis) it was 53.7 °C.

In the case of AGO2, in the series on HeLa Kyoto [1], the “solubility in G1/S (log2)” value was -0.133. The “solubility change mitosis (log2)” value with HeLa Kyoto [2] came to 0.0495. Besides, the thermal stability score in the series with HeLa Kyoto [3] (setting [5]) is 2.34; in the series with HeLa Kyoto [3] (cell cycle stage: mitosis) it was -0.539. Further, the melting temperature in the series on HeLa Kyoto [4] (cell cycle stage: G1/S) amounted to 51.5 °C; with HeLa Kyoto [4] (cell cycle stage: mitosis), 52.6 °C.

For AKAP13, the “solubility in G1/S (log2)” value in the series on HeLa Kyoto [1] was -0.0395. The “solubility change mitosis (log2)” value with HeLa Kyoto [2] is -0.118. Further, the figures for the thermal stability score with HeLa Kyoto [3] (setting [5]) and with HeLa Kyoto [3] (cell cycle stage: mitosis) were -0.167 and 1.43, respectively. In addition, the melting temperature in the series with HeLa Kyoto [4] (cell cycle stage: G1/S) amounted to 50.6 °C; in the series with HeLa Kyoto [4] (cell cycle stage: mitosis), 49.6 °C.

Consider ALDH6A1, for which the “solubility in G1/S (log2)” value in the series on HeLa Kyoto [1] is 0.179. In addition, the “solubility change mitosis (log2)” value with HeLa Kyoto [2] is -0.072. Besides, the thermal stability score in the series with HeLa Kyoto [3] (setting [5]) stood at 0.0292; in the series with HeLa Kyoto [3] (cell cycle stage: mitosis) it was 0.822. Also, the melting temperature came out at 49.3 °C in the series on HeLa Kyoto [4] (cell cycle stage: G1/S) and 49.9 °C in the series on HeLa Kyoto [4] (cell cycle stage: mitosis).

Turning to ANKHD1, the “solubility in G1/S (log2)” value with HeLa Kyoto [1] was -0.0494. Moreover, the “solubility change mitosis (log2)” value with HeLa Kyoto [2] is -0.0108. Moreover, the results for the thermal stability score in the series on HeLa Kyoto [3] (setting [5]) and in the series on HeLa Kyoto [3] (cell cycle stage: mitosis) were 0.478 and 1.9, respectively. The figures for the melting temperature in the series on HeLa Kyoto [4] (cell cycle stage: G1/S) and with HeLa Kyoto [4] (cell cycle stage: mitosis) were 47.9 °C and 49.4 °C, respectively.

Regarding ASAP1, the “solubility in G1/S (log2)” value with HeLa Kyoto [1] amounted to 0.0639. Besides, the “solubility change mitosis (log2)” value in the series on HeLa Kyoto [2] is -0.0861. For the same substance, the thermal stability score was determined as 0.472 in the series on HeLa Kyoto [3] (setting [5]) and 0.143 with HeLa Kyoto [3] (cell cycle stage: mitosis). In addition, the figures for the melting temperature with HeLa Kyoto [4] (cell cycle stage: G1/S) and in the series with HeLa Kyoto [4] (cell cycle stage: mitosis) were 50.5 °C and 51.1 °C, respectively.

As for ATP5H, in the series on HeLa Kyoto [1], the “solubility in G1/S (log2)” value was 0.0908. Moreover, the “solubility change mitosis (log2)” value in the series with HeLa Kyoto [2] stood at 0.46. Also, the thermal stability score with HeLa Kyoto [3] (setting [5]) is -5.39; in the series with HeLa Kyoto [3] (cell cycle stage: mitosis) it was -6.92. In addition, the melting temperature in the series on HeLa Kyoto [4] (cell cycle stage: G1/S) amounted to 54.9 °C; in the series with HeLa Kyoto [4] (cell cycle stage: mitosis), 52.9 °C.

In the case of ATP7A, the “solubility in G1/S (log2)” value in the series with HeLa Kyoto [1] was determined as 0.00927. Further, the “solubility change mitosis (log2)” value in the series on HeLa Kyoto [2] was -0.147. For the same substance, the figures for the thermal stability score in the series on HeLa Kyoto [3] (setting [5]) and in the series on HeLa Kyoto [3] (cell cycle stage: mitosis) were -0.475 and -0.996, respectively. Also, the melting temperature was 51.7 °C in the series with HeLa Kyoto [4] (cell cycle stage: G1/S) and 51.1 °C in the series with HeLa Kyoto [4] (cell cycle stage: mitosis).

For the substance ATR, the “solubility in G1/S (log2)” value in the series with HeLa Kyoto [1] was -0.368. Further, the “solubility change mitosis (log2)” value in the series with HeLa Kyoto [2] is -0.097. Besides, the thermal stability score was -0.0687 in the series with HeLa Kyoto [3] (setting [5]) and 0.0624 in the series on HeLa Kyoto [3] (cell cycle stage: mitosis). The melting temperature came out at 50.7 °C in the series with HeLa Kyoto [4] (cell cycle stage: G1/S) and 50.5 °C in the series with HeLa Kyoto [4] (cell cycle stage: mitosis).

For BCOR, the “solubility in G1/S (log2)” value in the series with HeLa Kyoto [1] is -0.157. Moreover, the “solubility change mitosis (log2)” value in the series with HeLa Kyoto [2] was determined as 0.38. The thermal stability score in the series with HeLa Kyoto [3] (setting [5]) came to 0.368; with HeLa Kyoto [3] (cell cycle stage: mitosis) it was 1.08. For the same substance, the melting temperature with HeLa Kyoto [4] (cell cycle stage: G1/S) worked out at 47.6 °C; in the series on HeLa Kyoto [4] (cell cycle stage: mitosis), 50.1 °C.

In the case of BRD2, in the series on HeLa Kyoto [1], the “solubility in G1/S (log2)” value was -0.0635. For the same substance, the “solubility change mitosis (log2)” value in the series with HeLa Kyoto [2] stood at 0.202. Moreover, the thermal stability score in the series on HeLa Kyoto [3] (setting [5]) worked out at 0.901; with HeLa Kyoto [3] (cell cycle stage: mitosis), 2.29. Further, the values for the melting temperature in the series with HeLa Kyoto [4] (cell cycle stage: G1/S) and in the series on HeLa Kyoto [4] (cell cycle stage: mitosis) were 47.9 °C and 49.1 °C, respectively.

Take BTAF1: the “solubility in G1/S (log2)” value in the series with HeLa Kyoto [1] is -0.142. Moreover, the “solubility change mitosis (log2)” value in the series on HeLa Kyoto [2] is -0.118. In addition, the thermal stability score in the series on HeLa Kyoto [3] (setting [5]) stood at 0.553; in the series on HeLa Kyoto [3] (cell cycle stage: mitosis), 1.71. For the same substance, the values for the melting temperature with HeLa Kyoto [4] (cell cycle stage: G1/S) and in the series on HeLa Kyoto [4] (cell cycle stage: mitosis) were 50 °C and 50.1 °C, respectively.

Take C1GALT1: in the series with HeLa Kyoto [1], the “solubility in G1/S (log2)” value was found to be 0.222. Also, in the series with HeLa Kyoto [2], the “solubility change mitosis (log2)” value is -0.0544. Further, the thermal stability score in the series with HeLa Kyoto [3] (setting [5]) was -1.2; in the series on HeLa Kyoto [3] (cell cycle stage: mitosis) it was 0.982. For the same substance, the melting temperature turned out to be 53.7 °C in the series with HeLa Kyoto [4] (cell cycle stage: G1/S) and 53.6 °C with HeLa Kyoto [4] (cell cycle stage: mitosis).

In the case of C20ORF27, in the series with HeLa Kyoto [1], the “solubility in G1/S (log2)” value was determined as 0.205. In addition, the “solubility change mitosis (log2)” value in the series with HeLa Kyoto [2] is -0.035. Further, the figures for the thermal stability score with HeLa Kyoto [3] (setting [5]) and in the series on HeLa Kyoto [3] (cell cycle stage: mitosis) were -0.424 and -1.13, respectively. Further, the figures for the melting temperature with HeLa Kyoto [4] (cell cycle stage: G1/S) and in the series on HeLa Kyoto [4] (cell cycle stage: mitosis) were 53.3 °C and 54.8 °C, respectively.

Regarding CC2D1A, the “solubility in G1/S (log2)” value in the series on HeLa Kyoto [1] was 0.298. In addition, in the series on HeLa Kyoto [2], the “solubility change mitosis (log2)” value is -0.0691. The thermal stability score stood at 0.931 in the series on HeLa Kyoto [3] (setting [5]) and 0.615 in the series with HeLa Kyoto [3] (cell cycle stage: mitosis). For the same substance, the melting temperature with HeLa Kyoto [4] (cell cycle stage: G1/S) stood at 49.7 °C; in the series on HeLa Kyoto [4] (cell cycle stage: mitosis) it was 49.6 °C.

CENPF: the “solubility in G1/S (log2)” value in the series on HeLa Kyoto [1] was -0.00455. The “solubility change mitosis (log2)” value with HeLa Kyoto [2] was found to be 0.109. The thermal stability score amounted to 2.12 with HeLa Kyoto [3] (setting [5]) and 0.418 in the series with HeLa Kyoto [3] (cell cycle stage: mitosis). In addition, the melting temperature in the series on HeLa Kyoto [4] (cell cycle stage: G1/S) is 48.9 °C; with HeLa Kyoto [4] (cell cycle stage: mitosis), 49.7 °C.

Take CIAPIN1: in the series with HeLa Kyoto [1], the “solubility in G1/S (log2)” value came to 0.471. For the same substance, the “solubility change mitosis (log2)” value with HeLa Kyoto [2] is -0.0971. Also, the results for the thermal stability score in the series on HeLa Kyoto [3] (setting [5]) and with HeLa Kyoto [3] (cell cycle stage: mitosis) were 0.785 and 3.13, respectively. The melting temperature in the series with HeLa Kyoto [4] (cell cycle stage: G1/S) stood at 50.7 °C; with HeLa Kyoto [4] (cell cycle stage: mitosis), 51.7 °C.

Take CLTC: the “solubility in G1/S (log2)” value in the series with HeLa Kyoto [1] was -0.168. The “solubility change mitosis (log2)” value with HeLa Kyoto [2] is -0.171. Also, the results for the thermal stability score in the series on HeLa Kyoto [3] (setting [5]) and in the series on HeLa Kyoto [3] (cell cycle stage: mitosis) were -1.37 and 1.15, respectively. Also, the melting temperature was 51.4 °C in the series on HeLa Kyoto [4] (cell cycle stage: G1/S) and 50.6 °C in the series with HeLa Kyoto [4] (cell cycle stage: mitosis).

As to COL4A2, the “solubility in G1/S (log2)” value with HeLa Kyoto [1] is 0.038. The “solubility change mitosis (log2)” value with HeLa Kyoto [2] turned out to be 0.0703. The thermal stability score with HeLa Kyoto [3] (setting [5]) is 0.58; with HeLa Kyoto [3] (cell cycle stage: mitosis), -0.541. Moreover, the melting temperature in the series on HeLa Kyoto [4] (cell cycle stage: G1/S) is 53.4 °C; in the series with HeLa Kyoto [4] (cell cycle stage: mitosis), 55.3 °C.

In the case of CREBBP, the “solubility in G1/S (log2)” value in the series with HeLa Kyoto [1] was -0.265. For the same substance, in the series on HeLa Kyoto [2], the “solubility change mitosis (log2)” value amounted to 0.0153. Also, the thermal stability score in the series with HeLa Kyoto [3] (setting [5]) is -0.935; with HeLa Kyoto [3] (cell cycle stage: mitosis), -0.841. The melting temperature is 52 °C with HeLa Kyoto [4] (cell cycle stage: G1/S) and 53.2 °C in the series with HeLa Kyoto [4] (cell cycle stage: mitosis).

Take DHX9: in the series with HeLa Kyoto [1], the “solubility in G1/S (log2)” value is -0.671. Moreover, the “solubility change mitosis (log2)” value in the series on HeLa Kyoto [2] was found to be 0.211. Besides, the thermal stability score in the series on HeLa Kyoto [3] (setting [5]) was found to be 1.02; in the series with HeLa Kyoto [3] (cell cycle stage: mitosis), 2.63. Further, the melting temperature in the series on HeLa Kyoto [4] (cell cycle stage: G1/S) and in the series on HeLa Kyoto [4] (cell cycle stage: mitosis) was 50.5 °C each time.

As to DOCK9, the “solubility in G1/S (log2)” value in the series with HeLa Kyoto [1] is -0.203. In addition, the “solubility change mitosis (log2)” value in the series on HeLa Kyoto [2] is -0.156. Also, the thermal stability score is -0.162 in the series on HeLa Kyoto [3] (setting [5]) and -0.395 in the series with HeLa Kyoto [3] (cell cycle stage: mitosis). In addition, the melting temperature with HeLa Kyoto [4] (cell cycle stage: G1/S) was 51.4 °C; with HeLa Kyoto [4] (cell cycle stage: mitosis), 50.6 °C.

As to DSP, in the series on HeLa Kyoto [1], the “solubility in G1/S (log2)” value is -0.687. In the series on HeLa Kyoto [2], the “solubility change mitosis (log2)” value is -0.0238. Moreover, the thermal stability score in the series with HeLa Kyoto [3] (setting [5]) is -3.13; in the series with HeLa Kyoto [3] (cell cycle stage: mitosis) it was 0.479. Also, the figures for the melting temperature with HeLa Kyoto [4] (cell cycle stage: G1/S) and in the series with HeLa Kyoto [4] (cell cycle stage: mitosis) were 46.7 °C and 46.6 °C, respectively.

As to EIF4G3, the “solubility in G1/S (log2)” value in the series on HeLa Kyoto [1] came to 0.109. Also, the “solubility change mitosis (log2)” value in the series with HeLa Kyoto [2] was -0.178. For the same substance, the thermal stability score with HeLa Kyoto [3] (setting [5]) was 0.306; in the series on HeLa Kyoto [3] (cell cycle stage: mitosis), 2.44. In addition, the figures for the melting temperature with HeLa Kyoto [4] (cell cycle stage: G1/S) and in the series with HeLa Kyoto [4] (cell cycle stage: mitosis) were 49.1 °C and 49.4 °C, respectively.
